These results are taken from US20190330277A1 (PIRBRIGHT INSTITUTE, published 2019).

Assay in all cases: biolayer interferometry (Octet), variant on Ni-NTA tip, Fab in solution
In general terms: BLI is a label-free optical method that tracks binding on a fibre tip over time.

For test [1], the target named is bRSV 391-2 postF (bovine respiratory syncytial virus, …, UniProt P22167 26-109; P22167 147-513).
Test [2] has as its target bRSV RB94 postF (bovine respiratory syncytial virus, …, UniProt P23728 26-109; P23728 147-513).
Test [3] deals with bRSV ATue51908 postF (bovine respiratory syncytial virus, …, UniProt P22167 26-109; P22167 147-513).
Test [4] deals with bRSV 391-2 DSCav1 (bovine respiratory syncytial virus, …, UniProt P22167 26-109).
Test [5] has as its target bRSV 391-2 sc9-10 DS-Cav1 Q98C-Q361C (bovine respiratory syncytial virus, …).
Test [6] deals with bRSV ATue51908 DSCav1 (bovine respiratory syncytial virus, …, UniProt P22167 26-109).
In test [7] the target is bRSV ATue51908 sc9-10 DS-Cav1 A149C-Y458C (bovine respiratory syncytial virus, …).
The target in test [8] is bRSV 391-2 sc9 DS-Cav1 Q98C-Q361C (bovine respiratory syncytial virus, …).

B1: MPE8 Fab (Fab, V domains shown)
VH: EVQLVESGGGLVKPGGSLRLSCAASGFTFSSYSMNWVRQAPGKGLEWVSSISASSSYSDYADSAKGRFTISRDNAKTSLFLQMNSLRAEDTAIYFCARARATGYSSITPYFDIWGQGTLVTVSS
VL: QSVVTQTPSVSGAPGQRVTISCTGSSSNIGAGYDVHWYQQLPGTAPKLLIYDNNNRPSGVPDRFSASKSGTSASLAITGLQAEDEADYYCQSYDRNLSGVFGTGTKVTVL
notes: also called mAb MPE8
Take B1: the equilibrium dissociation constant (Kd) in test [1] and in test [2] was over 1000 nM throughout.

B2: AM14 Fab (Fab, V domains shown)
VH: EVQLVESGGGVVQPGRSLRLSCAASGFSFSHYAMHWVRQAPGKGLEWVAVISYDGENTYYADSVKGRFSISRDNSKNTVSLQMNSLRPEDTALYYCARDRIVDDYYYYGMDVWGQGATVTVSS
VL: DIQMTQSPSSLSASVGDRVTITCQASQDIKKYLNWYHQKPGKVPELLMHDASNLETGVPSRFSGRGSGTDFTLTISSLQPEDIGTYYCQQYDNLPPLTFGGGTKVEIKR
notes: also called mAb AM14
With B2, the equilibrium dissociation constant (Kd) – broadly, the free concentration of one partner at which half of the binding sites on the other are occupied at equilibrium, for simple one-to-one binding – in test [3] was over 1000 nM; in test [1], over 1000 nM; in test [2] it was over 1000 nM; in test [4], 1.8 nM; in test [5], 12.8 nM; in test [6], 4.8 nM. The Kd in test [7] stood at 12.8 nM; in test [8], 8.6 nM.

B3: D25 Fab (Fab, V domains shown)
VH: QVQLVQSGAEVKKPGSSVMVSCQASGGPLRNYIINWLRQAPGQGPEWMGGIIPVLGTVHYAPKFQGRVTITADESTDTAYIHLISLRSEDTAMYYCATETALVVSTTYLPHYFDNWGQGTLVTVSS
VL: DIQMTQSPSSLSAAVGDRVTITCQASQDIVNYLNWYQQKPGKAPKLLIYVASNLETGVPSRFSGSGSGTDFSLTISSLQPEDVATYYCQQYDNLPLTFGGGTKVEIK
notes: also called mAb D25
For B3, the dissociation constant (Kd) in test [6] was found to be 10.8 nM; in test [7] it was 420 nM.
